Reference: patent US20220251595A1, “ENGINEERED ATRLP23 PATTERN RECOGNITION RECEPTORS AND METHODS OF USE” (priority 2019, published 2022)

Assays:
corn protoplasts [1] = test: Calcium burst in transiently transfected corn protoplasts, R-GECO1.2 fluorescence reporter; format: cell-based, Zea mays; conditions: Example 3, FIG. 4; 1 μM PpNLP20; 40 minutes; 384-well
Description: Following ligand (also known as elicitor) binding, PRRs are activated and induce a transient increase of cytosolic Ca^2+ concentration as part of a PTI response. […] In a high-throughput method, the kinetics of PRR-dependent transient variation of cytosolic Ca^2+ concentration can be measured with a fluorimeter or luminometer and in microplate formats of 96 or 384 wells.
Fluorescence was monitored using a fluorimeter equipped with a 100 Hz xenon flash lamp with excitation at 556 nm and emission measured at 585 nm for 100 ms, every 22.6 seconds for 42 minutes.
All of the AtRLP23 constructs have an operably linked 2×35S+Ω promoter construct (SEQ ID NO: 72) and an operably linked rbcS terminator (SEQ ID NO: 73)
Fluorescence was monitored using a fluorimeter equipped with a 100 Hz xenon flash lamp with excitation at 556 nm and emission measured at 585 nm for 30 ms, every 20.2 seconds for 40 minutes. For each fluorescence measurement, the transient change in R-GECO1.2 fluorescence (ΔF) are calculated from background corrected intensity values as (F-Fo), where F represents the average fluorescence intensity of the a batch of protoplasts treated with elicitor, and Fo represents the average fluorescence intensity of the same batch of protoplasts treated with a control solution that lacks the elicitor but is otherwise identical or essentially identical in composition to the solution comprising the elicitor.

corn protoplasts [2] = test: Calcium burst in transiently transfected corn protoplasts, apoaequorin luminescence reporter

B1: AtRLP23+TM-AtSOBIR1-3×FLAG: AtRLP23 apoplastic, eJM and TM domains, AtSOBIR1 cytoplasmic domain, 3×FLAG; SEQ ID NO: 41, 42 (protein)
chain: MSKALLHLHFLSLFLLCCVCHSSIFTLNFHFTGIVACRPHQIQAFTKFTNEFDTRGCNNSDTFNGVWCDNSTGAVAVLQLRKCLSGTLKSNSSLFGFHQLRYVDLQNNNLTSSSLPSGFGNLKRLEGLFLSSNGFLGQVPSSFSNLTMLAQLDLSYNKLTGSFPLVRGLRKLIVLDLSYNHFSGTLNPNSSLFELHQLRYLNLAFNNFSSSLPSKFGNLHRLENLILSSNGFSGQVPSTISNLTRLTKLYLDQNKLTSSFPLVQNLTNLYELDLSYNKFFGVIPSSLLTLPFLAHLALRENNLAGSVEVSNSSTSSRLEIMYLGSNHFEGQILEPISKLINLKHLDLSFLNTSYPIDLKLFSSLKSLRSLDLSGNSISSASLSSDSYIPLTLEMLTLRHCDINEFPNILKTLKELVYIDISNNRMKGKIPEWLWSLPLLQSVTLGNNYFTGFQGSAEILVNSSVLLLYLDSNNFEGALPDLPLSIKGFGVASNSFTSEIPLSICNRSSLAAIDLSYNNFTGPIPPCLRNLELVYLRNNNLEGSIPDALCDGASLRTLDVSHNRLTGKLPRSFVNCSSLKFLSVINNRIEDTFPFWLKALPNLQVLTLRSNRFYGPISPPHQGPLGFPELRIFEISDNKFTGSLPPNYFVNWKASSRTMNQDGGLYMVYEEKLFDEGGYGYTDALDLQYKGLHMEQAKALTSYAAIDFSGNRLEGQIPESIGLLKALIAVNISNNAFTGHIPLSMANLENLESLDMSRNQLSGTIPNGLGSISFLAYINVSHNQLTGEIPQGTQITGQSKSSFEGNAGLCGLPLKESCFGTGAPPMYHQKQEDKEEEEEEEEEEEEVLNGRAVAIGYGSGLLLGLAIAQVIASYKLIIQAIRGSEKPPGPSIFSPLIKKAEDLAFLENEEALASLEIIGRGGCGEVFKAELPGSNGKIIAVKKVIQPPKDADELTDEDSKFLNKKMRQIRSEINTVGHIRHRNLLPLLAHVSRPECHYLVYEYMEKGSLQDILTDVQAGNQELMWPARHKIALGIAAGLEYLHMDHNPRIIHRDLKPANVLLDDDMEARISDFGLAKAMPDAVTHITTSHVAGTVGYIAPEFYQTHKFTDKCDIYSFGVILGILVIGKLPSDEFFQHTDEMSLIKWMRNIITSENPSLAIDPKLMDQGFDEQMLLVLKIACYCTLDDPKQRPNSKDVRTMLSQIKHSDYKDHDGDYKDHDLDAAAADYKDDDDK
modifications: Fusion protein
responsiveness to PpNLP20 treatment compared to AtRLP23-3×FLAG (total transient increase of fluorescence) (corn protoplasts [1]): increased responsiveness

B2: AtRLP23-AtEFR-3×FLAG: AtRLP23 apoplastic and eJM domains, AtEFR TM and cytoplasmic domains, 3×FLAG; SEQ ID NO: 17, 18 (protein)
chain: MSKALLHLHFLSLFLLCCVCHSSIFTLNFHFTGIVACRPHQIQAFTKFTNEFDTRGCNNSDTFNGVWCDNSTGAVAVLQLRKCLSGTLKSNSSLFGFHQLRYVDLQNNNLTSSSLPSGFGNLKRLEGLFLSSNGFLGQVPSSFSNLTMLAQLDLSYNKLTGSFPLVRGLRKLIVLDLSYNHFSGTLNPNSSLFELHQLRYLNLAFNNFSSSLPSKFGNLHRLENLILSSNGFSGQVPSTISNLTRLTKLYLDQNKLTSSFPLVQNLTNLYELDLSYNKFFGVIPSSLLTLPFLAHLALRENNLAGSVEVSNSSTSSRLEIMYLGSNHFEGQILEPISKLINLKHLDLSFLNTSYPIDLKLFSSLKSLRSLDLSGNSISSASLSSDSYIPLTLEMLTLRHCDINEFPNILKTLKELVYIDISNNRMKGKIPEWLWSLPLLQSVTLGNNYFTGFQGSAEILVNSSVLLLYLDSNNFEGALPDLPLSIKGFGVASNSFTSEIPLSICNRSSLAAIDLSYNNFTGPIPPCLRNLELVYLRNNNLEGSIPDALCDGASLRTLDVSHNRLTGKLPRSFVNCSSLKFLSVINNRIEDTFPFWLKALPNLQVLTLRSNRFYGPISPPHQGPLGFPELRIFEISDNKFTGSLPPNYFVNWKASSRTMNQDGGLYMVYEEKLFDEGGYGYTDALDLQYKGLHMEQAKALTSYAAIDFSGNRLEGQIPESIGLLKALIAVNISNNAFTGHIPLSMANLENLESLDMSRNQLSGTIPNGLGSISFLAYINVSHNQLTGEIPQGTQITGQSKSSFEGNAGLCGLPLKESCFGTGAPPMYHQKQEDKEEEEEEEEEEEEVLNGRVVSGICIGIASLLLIIIVASLCWFMKRKKKNNASDGNPSDSTTLGMFHEKVSYEELHSATSRFSSTNLIGSGNFGNVFKGLLGPENKLVAVKVLNLLKHGATKSFMAECETFKGIRHRNLVKLITVCSSLDSEGNDFRALVYEFMPKGSLDMWLQLEDLERVNDHSRSLTPAEKLNIAIDVASALEYLHVHCHDPVAHCDIKPSNILLDDDLTAHVSDFGLAQLLYKYDRESFLNQFSSAGVRGTIGYAAPEYGMGGQPSIQGDVYSFGILLLEMFSGKKPTDESFAGDYNLHSYTKSILSGCTSSGGSNAIDEGLRLVLQVGIKCSEEYPRDRMRTDEAVRELISIRSKFFSSKTTITESPRDAPQSSPQEWMLNTDMHTMASDYKDHDGDYKDHDLDAAAADYKDDDDK
modifications: Fusion protein
responsiveness to PpNLP20 treatment compared to AtRLP23-3×FLAG (total transient increase of fluorescence) (corn protoplasts [1]): increased responsiveness

B3: AtRLP23-AtPEPR1-3×FLAG: AtRLP23 apoplastic and eJM domains, AtPEPR1 TM and kinase domains, 3×FLAG; SEQ ID NO: 572, 573 (protein)
chain: MSKALLHLHFLSLFLLCCVCHSSIFTLNFHFTGIVACRPHQIQAFTKFTNEFDTRGCNNSDTFNGVWCDNSTGAVAVLQLRKCLSGTLKSNSSLFGFHQLRYVDLQNNNLTSSSLPSGFGNLKRLEGLFLSSNGFLGQVPSSFSNLTMLAQLDLSYNKLTGSFPLVRGLRKLIVLDLSYNHFSGTLNPNSSLFELHQLRYLNLAFNNFSSSLPSKFGNLHRLENLILSSNGFSGQVPSTISNLTRLTKLYLDQNKLTSSFPLVQNLTNLYELDLSYNKFFGVIPSSLLTLPFLAHLALRENNLAGSVEVSNSSTSSRLEIMYLGSNHFEGQILEPISKLINLKHLDLSFLNTSYPIDLKLFSSLKSLRSLDLSGNSISSASLSSDSYIPLTLEMLTLRHCDINEFPNILKTLKELVYIDISNNRMKGKIPEWLWSLPLLQSVTLGNNYFTGFQGSAEILVNSSVLLLYLDSNNFEGALPDLPLSIKGFGVASNSFTSEIPLSICNRSSLAAIDLSYNNFTGPIPPCLRNLELVYLRNNNLEGSIPDALCDGASLRTLDVSHNRLTGKLPRSFVNCSSLKFLSVINNRIEDTFPFWLKALPNLQVLTLRSNRFYGPISPPHQGPLGFPELRIFEISDNKFTGSLPPNYFVNWKASSRTMNQDGGLYMVYEEKLFDEGGYGYTDALDLQYKGLHMEQAKALTSYAAIDFSGNRLEGQIPESIGLLKALIAVNISNNAFTGHIPLSMANLENLESLDMSRNQLSGTIPNGLGSISFLAYINVSHNQLTGEIPQGTQITGQSKSSFEGNAGLCGLPLKESCFGTGAPPMYHQKQEDKEEEEEEEEEEEEVLNGRIVLIAVLSSLLVLVVVLALVFICLRRRKGRPEKDAYVFTQEEGPSLLLNKVLAATDNLNEKYTIGRGAHGIVYRASLGSGKVYAVKRLVFASHIRANQSMMREIDTIGKVRHRNLIKLEGFWLRKDDGLMLYRYMPKGSLYDVLHGVSPKENVLDWSARYNVALGVAHGLAYLHYDCHPPIVHRDIKPENILMDSDLEPHIGDFGLARLLDDSTVSTATVTGTTGYIAPENAFKTVRGRESDVYSYGVVLLELVTRKRAVDKSFPESTDIVSWVRSALSSSNNNVEDMVTTIVDPILVDELLDSSLREQVMQVTELALSCTQQDPAMRPTMRDAVKLLEDVKHLARSCSSDSVRSDYKDHDGDYKDHDLDAAAADYKDDDDK
modifications: Fusion protein
Ca^2+ burst in response to all tested NLP peptides (corn protoplasts [2]; Example 6, FIG. 8, CgNLP24b, FgNLP24c, FvNLP24a, SmNLP24): Ca^2+ burst | increase in Ca^2+ compared to control buffer treatment (corn protoplasts [2]; FIG. 8, all peptides tested): statistically significant
